This is an account of results in patent publication US8492147B2, “Method of inducing the differentiation of embryonic stem cells into nerve by serum-free suspension culture” (Riken, priority 2004, dated 2013).

Test [1] has as its system Mouse ES cells (EB5 cells). The experiment in a line: SFEB culture with retinoic acid, Bf1+ cells and RT-PCR of rostral/caudal markers. In kind it is cell-based. The following applies: RA 0.2 μM after 3-5 days of the culture. The protocol: Specifically, As ES cells, those cultured for maintenance by conventional culture method without feeder cells supplemented with 1% fetal calf serum, 10% KSR (Knockout Serum Replacement), and LIF were used for SFEB method (see, Neuron, Vol. 28: 31-40 (2000)). Next, after ES cell colonies were subjected to trypsin/EDTA treatment to make single cells, 10 ml of the cells (6×10^4 cells/ml) were seeded on cell non-adhesive culture plastic plate (diameter: 10 cm), and incubated at 37° C., 5% CO2 for five days. As medium, differentiation medium composed of 500 ml of GMEM, 5 ml of 100×NEAA, 5 ml of 100×pyruvate, and 0.5 ml of 1×10^−1 M 2-mercaptoethanol, and 5% KSR (Knockout Serum Replacement). […]
Mouse ES cells (EB5 cells) were subjected to serum-free floating culture by the SFEB method in the same manner as Example 1 for 5 days, after which they were dispersed by trypsin/EDTA treatment, seeded to a cell culture slide coated with poly-D lysine/laminin, and cultured in a differentiation medium (as described above) for 2 days, and then in a GMEM+N2 medium (composition: GMEM+1×N-2 Supplement (manufactured by Gibco, a supply of ×100 concentration was used after dilution), 0.1 mM non-essential amino acid, 1 mM sodium pyruvate, 0.1 mM 2-mercaptoethanol) for 3 days. The finally obtained differentiated cells were analyzed by the fluorescent antibody method using anti-Bf1 antibody. […]

The test system of test [2] is ES cells. The experiment in a line: SDIA method on PA6 cells with BMP4, Math1 and cerebellar granule cell markers. In kind it is cell-based. The text has this:
Although there have been no reports on differentiation induction of ES cells into cerebellar tissue, the present inventors have already reported that Math1 is induced by treating neurons differentiated by the SDIA method with BMP4 (see Proc. Natl. Acad. Sci. USA, 100, 5828-5833). […] Therefore, the Math1-positive cells induced by the SDIA method were postulated not to be cerebellar granule cells, but to be Math1-positive cells of the pons, medulla oblongata, spinal cord and the like.

Test [3] concerns ES cells. The experiment in a line: BMP treatment of ES cells cultured by SFEB method. In kind it is cell-based. The text has this: (§1) It is interesting to elucidate what kinds of signaling regulate this difference by analyzing RNA profile for them.
For test [4], the system named is ES cells. The experiment in a line: BMP treatment of ES cells cultured on collagen-coated dish. In kind it is cell-based. The note with it: BMP treatment (5 nM).
Source text: as §1

For the next test, the system named is EB5 cells. Put plainly: SFEB culture, differentiation into retinal precursor cells (Rx, rhodopsin immunostaining). It is filed as cell-based, mouse. The protocol: EB5 cells were subjected to serum-free floating culture by the SFEB method for 5 days, after which cell clamps as is were seeded to a cell culture slide coated with poly-D lysine/laminin/fibronectin, and cultured while in the KSR-containing differentiation medium for the SFEB method for a total of 8 days. Immunostaining was performed using an internally prepared antibody against Rx, a marker specific for retinal precursor cells; an Rx-positive cell population was identified in about 15-30% of the cell clamps (colonies). By treatment with 5% fetal calf serum or 100 ng/ml activin (manufactured by R&D) or treatment with 3-30 nM Shh during 3 to 5 days after the start of cultivation, the Rx positivity rate of colonies increased to 50% (about 2 times). […] Also, these cells were subjected to adhesion culture for a long time (a total of 14 to 18 days); a plurality of cells positive for the visual cell marker Crx or rhodopsin were identified in 1-5% of the colonies.

For the next test, the system named is Sox1/GFP-mES cells. The experiment in a line: SFEB serum-free floating culture of Sox1/GFP-mES cells, frequency of Sox1-GFP+ cells (FACS). It is filed as cell-based, mouse. The note with it: for experiment-to-experiment variation of GFP expression value: initial cell density 5×10^4 cell/ml, without addition varied by about 10-15%. As to the method: Specifically, As ES cells, those cultured for maintenance by conventional culture method without feeder cells supplemented with 1% fetal calf serum, 10% KSR (Knockout Serum Replacement), and LIF were used for SFEB method (see, Neuron, Vol. 28: 31-40 (2000)). Next, after ES cell colonies were subjected to trypsin/EDTA treatment to make single cells, 10 ml of the cells (6×10^4 cells/ml) were seeded on cell non-adhesive culture plastic plate (diameter: 10 cm), and incubated at 37° C., 5% CO2 for five days. As medium, differentiation medium composed of 500 ml of GMEM, 5 ml of 100×NEAA, 5 ml of 100×pyruvate, and 0.5 ml of 1×10^−1 M 2-mercaptoethanol, and 5% KSR (Knockout Serum Replacement).
Next, For quantitative analysis, mouse ES cells wherein GFP (green fluorescent protein) was knocked in the nerve marker Sox1 gene by homologous recombination (hereinafter abbreviated as Sox1/GFP-mES cells as required; see Nature Biotechnology Vol. 21: 183-186 (2003)) were cultured by the SFEB method. The culture conditions were the same as those for the SFEB method described in 1.1. above except that Sox1/GFP-mES cells were used as the ES cells.
Next, to further improve the efficiency of differentiation into nervous system cells by the SFEB method, the present inventors attempted to determine whether or not the efficiency of differentiation into nervous system cells was improved by inhibiting Nodal, Wnt, and BMP, which are promoters of differentiation into mesodermal cells.
Next, we tested effects of Nodal and Wnt by adding Nodal protein (manufactured by R&D) and Wnt3a protein (manufactured by R&D) to SFEB culture.

The subject of test [5] is ES cells. The experiment in a line: SFEB culture then adhesion culture with Wnt3a, dorsal/ventral telencephalon markers. In kind it is cell-based, mouse. The protocol: Mouse ES cells (EB5 cells) were subjected to serum-free floating culture by the SFEB method in the same manner as Example 1 for 5 days, after which they were dispersed by trypsin/EDTA treatment, seeded to a cell culture slide coated with poly-D lysine/laminin, and cultured in a differentiation medium (as described above) for 2 days, and then in a GMEM+N2 medium (composition: GMEM+1×N-2 Supplement (manufactured by Gibco, a supply of ×100 concentration was used after dilution), 0.1 mM non-essential amino acid, 1 mM sodium pyruvate, 0.1 mM 2-mercaptoethanol) for 3 days. The finally obtained differentiated cells were analyzed by the fluorescent antibody method using anti-Bf1 antibody. For comparison, neural differentiation from ES cells was performed by the SDIA method, and the cells obtained were analyzed by the fluorescent antibody method in the same manner.
ES cells were cultured by the SFEB method in the same manner as Examples 4 and 6 for 5 days to induce neural differentiation, subsequently dispersed by trypsin/EDTA treatment, seeded to a cell culture slide coated with poly-D lysine/laminin, and cultured. […] In the case of 50 ng/ml Wnt3a, about 75% of the Bf1-positive cells expressed the dorsal marker Pax6, and about 10 percent of them expressed Emx1, a marker of cerebrocortical precursor cells.

The mark [6] stands for this setting: Nodal protein 5 μg/ml, Wnt3a protein 50 ng/ml, during days 0-5 and days 2-5.
Where [7] appears, read: Wnt3a 5 ng/ml or 50 ng/ml from Day 6, total 10 days.

`CC1=C(/C=C/C(C)=C/C=C/C(C)=C/C(=O)O)C(C)(C)CCC1` [RA, retinoic acid]: the “Bf1+ cells” value in test [1] is recorded as less than 1%.
Take “BMP4: BMP signal promoter, manufactured by R&D”: the “Ki67 in the Math1-positive cells” value in the test with ES cells [2] (0.5-1 nM BMP4) is reported as “negative”. For the same molecule, the “expression of Pax6, Zic1 in the Math1-positive cells” value with ES cells [2] (0.5-1 nM BMP4, most of these cells) is reported as “did not express”. The neural differentiation result in the test with ES cells [3] is on record as “completely suppresses neural differentiation”. Besides, the cell type produced entry in the test on ES cells [3] (not flk1+ cells) was “efficiently produces E-cad^+/Oct3/4^− cells”; with ES cells [4], “induces efficient differentiation into flk1^+ lateral plate mesoderm”.

B1: activin: TGFβ family protein, Nodal signal promoter, manufactured by R&D (protein, UniProt P08476 311-426, looked up)
Inhibin beta A chain: GLECDGKVNICCKKQFFVSFKDIGWNDWIIAPSGYHANYCEGECPSHIAGTSGSSLSFHSTVINHYRMRGHSPFANLKSCCVPTKLRPMSMLYYDDGQNIIKKDIQNMIVEECGCS
modifications: Inhibin beta A chain activin A assumed
notes: TGFβ family protein, Nodal signal promoter, manufactured by R&D
With B1, in the test on EB5 cells (5% fetal calf serum or 100 ng/ml activin or 3-30 nM Shh during 3 to 5 days, total 8 days, without: about 15-30%), the “Rx positivity rate of colonies” value came to 50%. In addition, the “increase of Rx positivity rate of colonies” value with EB5 cells (same treatments, versus no treatment) was “about 2 times”.

B2: Nodal protein: Nodal protein (manufactured by R&D), Nodal signal promoter (protein, UniProt Q96S42 238-347, looked up)
Nodal homolog: HHLPDRSQLCRKVKFQVDFNLIGWGSWIIYPKQYNAYRCEGECPNPVGEEFHPTNHAYIQSLLKRYQPHRVPSTCCAPVKTKPLSMLYVDNGRVLLDHHKDMIVEECGCL
For the molecule B2, the “frequency of Sox1-GFP+ cells” value in the test with Sox1/GFP-mES cells (setting [6]) is on record as “significantly suppress”.

B3: Dkk1: anti-Wnt reagent (Wnt signal inhibitor), manufactured by R&D Company (protein, UniProt O94907 32-266, looked up)
Dickkopf-related protein 1: TLNSVLNSNAIKNLPPPLGGAAGHPGSAVSAAPGILYPGGNKYQTIDNYQPYPCAEDEECGTDEYCASPTRGGDAGVQICLACRKRRKRCMRHAMCCPGNYCKNGICVSSDQNHFRGEIEETITESFGNDHSTLDGYSRRTTLSSKMYHTKGQEGSVCLRSSDCASGLCCARHFWSKICKPVLKEGQVCTKHRRKGSHGLEIFQRCYCGEGLSCRIQKDHHQASNSSRLHTCQRH
Regarding B3, the “experiment-to-experiment variation of GFP expression value” in the test with Sox1/GFP-mES cells was “stabilized the value of GFP expression”.

B4: Lefty-A: anti-Nodal reagent (Nodal signal inhibitor), manufactured by R&D Company (protein, UniProt O00292 77-366, looked up)
Left-right determination …: RFSQSFREVAGRFLASEASTHLLVFGMEQRLPPNSELVQAVLRLFQEPVPKAALHRHGRLSPRSAQARVTVEWLRVRDDGSNRTSLIDSRLVSVHESGWKAFDVTEAVNFWQQLSRPRQPLLLQVSVQREHLGPLASGAHKLVRFASQGAPAGLGEPQLELHTLDLRDYGAQGDCDPEAPMTEGTRCCRQEMYIDLQGMKWAKNWVLEPPGFLAYECVGTCQQPPEALAFNWPFLGPRQCIASETASLPMIVSIKEGGRTRPQVVSLPNMRVQKCSCASDGALVPRRLQP
For B4, the “frequency of Sox1-GFP+ cells” value in the test with Sox1/GFP-mES cells (added on Day 0 of SFEB, 5 μg/ml Lefty-A, 1 μg/ml Dkk1, 1.5 μg/ml BMPRIA-Fc receptobody) is on record as “evaluate the frequency of Sox1-GFP^+ cells”. Further, the “experiment-to-experiment variation of GFP expression value” with Sox1/GFP-mES cells is listed as “stabilized the value of GFP expression”.

B5: Wnt3a: Wnt3a protein (manufactured by R&D), Wnt signal promoter (protein, UniProt P56704 19-352, looked up)
Protein Wnt-3a: SYPIWWSLAVGPQYSSLGSQPILCASIPGLVPKQLRFCRNYVEIMPSVAEGIKIGIQECQHQFRGRRWNCTTVHDSLAIFGPVLDKATRESAFVHAIASAGVAFAVTRSCAEGTAAICGCSSRHQGSPGKGWKWGGCSEDIEFGGMVSREFADARENRPDARSAMNRHNNEAGRQAIASHMHLKCKCHGLSGSCEVKTCWWSQPDFRAIGDFLKDKYDSASEMVVEKHRESRGWVETLRPRYTYFKVPTERDLVYYEASPNFCEPNPETGSFGTRDRTCNVSSHGIDGCDLLCCGRGHNARAERRREKCRCVFHWCCYVSCQECTRVYDVHTCK
Regarding B5, in the test with Sox1/GFP-mES cells (setting [6]), the “frequency of Sox1-GFP+ cells” value is reported as “significantly suppress”. Also, in the test with ES cells [5] (50 ng/ml Wnt3a), the “Bf1-positive cells expressing Emx1” value is given as “about 10%” and the “Bf1-positive cells expressing dorsal marker Pax6” value was “about 75%”. In the test on ES cells [5] (setting [7]), the “number of cells positive for both NRx2.1 and Bf1 (ventral telencephalon markers)” value was “decreased remarkably”; the “number of cells positive for both Pax6 and Bf1 (dorsal telencephalon markers)” value was “increased”.
